Substitutions are numbered along the chain they refer to. Read-outs that look alike come from different tables or passages of the source.
Assays:
CoV2_5P_HKU1FP = CoV2_5P_HKU1FP (SARS-CoV-2 spike with HKU1 fusion …, UniProt P0DTC2 14-1208); test: ELISA AUC on 5P spikes with varying fusion peptides
CoV2_5P_NonSFP [1] = molecular target: T1, CoV2_5P_NonSFP (SARS-CoV-2, UniProt P0DTC2 14-1208); test: ELISA, AUC
T1 construct: also called scrambled fusion peptide spike

CoV2_5P_MERSFP [2] = molecular target: T2, CoV2_5P_MERSFP (SARS-CoV-2 spike with MERS fusion …, UniProt P0DTC2 14-1208); test: ELISA, AUC
CoV2_5P_NL63FP [3] = molecular target: T3, CoV2_5P_NL63FP (SARS-CoV-2 spike with NL63 fusion …, UniProt P0DTC2 14-1208); test: ELISA, AUC
CoV2_5P_OC43FP [4] = molecular target: T4, CoV2_5P_OC43FP (SARS-CoV-2 spike with OC43 fusion …, UniProt P0DTC2 14-1208); test: ELISA, AUC
CoV2_5P_229EFP [5] = molecular target: T5, CoV2_5P_229EFP (SARS-CoV-2 spike with 229E fusion …, UniProt P0DTC2 14-1208); test: ELISA, AUC
off-target V5 peptide = molecular target: T6, off-target V5 peptide; test: ELISA on fusion peptides
T6 construct: also called V5 tag
T6 peptide: GKPIPNPLLGLDST

[6] = molecular target: T7, CoV2_5P prefusion-stabilized spike protein (SARS-CoV-2, UniProt P0DTC2 14-1208); test: ELISA
T7 construct: also called 5P trimer; wildtype 5P

[7] = molecular target: T7, CoV2_5P prefusion-stabilized spike …; test: ELISA, AUC
CoV2_5P_NonSFP [8] = molecular target: T1, CoV2_5P_NonSFP; test: ELISA, AUC; remark: listed apart in the source
CoV2_5P_NL63FP [9] = molecular target: T3, CoV2_5P_NL63FP; test: ELISA, AUC; remark: listed apart in the source
CoV2_5P_OC43FP [10] = molecular target: T4, CoV2_5P_OC43FP; test: ELISA, AUC; remark: listed apart in the source
[11] = molecular target: T7, CoV2_5P prefusion-stabilized spike …; test: ELISA, AUC; remark: listed apart in the source
CoV2_5P_MERSFP [12] = molecular target: T2, CoV2_5P_MERSFP; test: ELISA AUC on 5P spikes with varying fusion peptides
CoV2_5P_229EFP [13] = molecular target: T5, CoV2_5P_229EFP; test: as above
CoV2_5P_MERSFP [14] = molecular target: T2, CoV2_5P_MERSFP; test: ELISA, AUC; remark: listed apart in the source
CoV2_5P_229EFP [15] = molecular target: T5, CoV2_5P_229EFP; test: ELISA, AUC; remark: listed apart in the source

B1: C2691 (antibody, V domains shown)
VH: QVQLQQSGPELVRPGESVKISCKGSGYTFTDYAMHWVKQSHAKSLEWIGIISFYYDNTKYNQNFKGKATMTVDKSSSTAYMELARLTSEDSAIYFCASQGIHYYGSFAYWGQGTLVTVSA
VL: DIVMTQSQKFMSTSVGDRVSVSCKASQNVGTNLGWYQQKPGQSPKALIYSASYRYSGVPDRFTGSGSGTDFTLTISNVQSEDLAEYFCQQYNSSPLTFGAGTKLELK
notes: also called lineage HV1-67/KV6-15 antibody C2691
B1: binds (CoV2_5P_HKU1FP); no binding (CoV2_5P_NonSFP [1]); binds (CoV2_5P_MERSFP [2]). B1: binds (CoV2_5P_NL63FP [3]); binds (CoV2_5P_OC43FP [4]); binds (CoV2_5P_229EFP [5]). B1: no binding (tested: dilution 0.05 (no unit)) (off-target V5 peptide); binds [6].

B2: C2891 (antibody, V domains shown)
VH: B1 VH with E10A, H41R, I51F, K59N, N61T, N63K, F95Y
VL: B1 VL with S22T, G30A, A46T, Q89H, S93G, S94Y
B2: no binding (CoV2_5P_NonSFP [1]); no binding (CoV2_5P_MERSFP [2]); no binding (CoV2_5P_NL63FP [3]). B2: no binding (CoV2_5P_OC43FP [4]); no binding (CoV2_5P_229EFP [5]); no binding [7].

B3: C2866 (antibody, V domains shown)
VH: B1 VH with I51F
VL: B1 VL with S22T, L33V, K45Q, S94Y
notes: Lineage HV1-67/KV6-15
B3: no binding (CoV2_5P_NonSFP [1]).

B4: C2503 (antibody, V domains shown)
VH: B1 VH with A42S
VL: B1 VL with S22T, L33V, P44H, E85D, S93N, S94Y
notes: Lineage HV1-67/KV6-15
B4: no binding (CoV2_5P_NonSFP [1]).

B5: C668 (antibody, V domains shown)
VH: EVKLVESGGGLVKPGGSLKLSCLVSGITFSNDAMSWVRQTPEKRLEWVASISSGGRNYYPDSVKGRFTISRDNARNILYLQMSSLRSEDTAMYFCAREGISVWAMDYWGQGTSVTVSS
VL: DIVMTQAAFSNPVTLGTSASISCRSSKSLLHSNGITYLYWYLQRPGQSPQLLIYRMSNLASGVPDRFSSSGSGTDFTLRISRVEAEDVGVYYCAQNLELPPTFGGGTKLEIK
notes: also called lineage HV5-6-5/KV2-109 antibody C668
B5 was tested, and the “EC50 (read off the curve)” value [6] was ~0.2 µg/mL.

B6: C862 (antibody, V domains shown)
VH: EVKLVESGGGLVKPGGSLKLSCAASGITFSSSAMSWVRQTPEKRLEWVASISSGGHTYYLDSMKGRFTISRDNARNILYLQMGSLRSEDTAVYYCAREGIYVWAMDYWGQGTSVTVSS
VL: B5 VL with H31Q, R44K, S69G, V90I
B6: no binding (CoV2_5P_NonSFP [8]); binds (CoV2_5P_NL63FP [9]); binds (CoV2_5P_OC43FP [10]). B6: binds [11]; binds (CoV2_5P_MERSFP [12]); binds (CoV2_5P_HKU1FP). B6: binds (CoV2_5P_229EFP [13]).

B7: C1766 (antibody, V domains shown)
VH: B5 VH with L23V, V24A, I27F, N57K, S62N, F94Y, S101Y
VL: B5 VL with K27E, R44K
B7: no binding (CoV2_5P_NonSFP [8]); binds (CoV2_5P_MERSFP [14]); binds (CoV2_5P_NL63FP [9]). B7: binds (CoV2_5P_OC43FP [10]); binds (CoV2_5P_229EFP [15]); binds [11]. B7: binds (CoV2_5P_HKU1FP).

Source: US20250134988A1 (WISTAR INSTITUTE OF ANATOMY AND BIOLOGY, published 2025)
